{
  "source": "paper PMC11203266",
  "about": "“Continuous evolution of compact protein degradation tags regulated by selective molecular glues” (Science (New York, N.Y.), 2024)",
  "key": {"[1]": {"target": "DDB1^ΔBPB•CRBN complex (tags cleaved, for BLI) (human) (UniProt Q96SW2)", "sequence (Q96SW2 whole entry, stated change not applied, chain 1 of 2)": "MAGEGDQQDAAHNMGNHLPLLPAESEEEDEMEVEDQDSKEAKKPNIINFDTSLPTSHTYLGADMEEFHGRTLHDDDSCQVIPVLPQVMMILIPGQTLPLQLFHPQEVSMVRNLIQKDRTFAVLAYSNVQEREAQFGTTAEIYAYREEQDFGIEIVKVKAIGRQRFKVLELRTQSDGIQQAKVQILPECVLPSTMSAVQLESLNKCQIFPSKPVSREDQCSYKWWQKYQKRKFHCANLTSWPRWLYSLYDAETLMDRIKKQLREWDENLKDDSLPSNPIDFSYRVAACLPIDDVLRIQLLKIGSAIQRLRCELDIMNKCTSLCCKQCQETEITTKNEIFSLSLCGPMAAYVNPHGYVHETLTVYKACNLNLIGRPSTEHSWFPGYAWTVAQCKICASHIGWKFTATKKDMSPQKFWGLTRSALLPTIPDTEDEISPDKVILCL", "sequence (Q16531 other isoform, or with tags, fused parts or gaps mutant, chain 2 of 2, further chain)": "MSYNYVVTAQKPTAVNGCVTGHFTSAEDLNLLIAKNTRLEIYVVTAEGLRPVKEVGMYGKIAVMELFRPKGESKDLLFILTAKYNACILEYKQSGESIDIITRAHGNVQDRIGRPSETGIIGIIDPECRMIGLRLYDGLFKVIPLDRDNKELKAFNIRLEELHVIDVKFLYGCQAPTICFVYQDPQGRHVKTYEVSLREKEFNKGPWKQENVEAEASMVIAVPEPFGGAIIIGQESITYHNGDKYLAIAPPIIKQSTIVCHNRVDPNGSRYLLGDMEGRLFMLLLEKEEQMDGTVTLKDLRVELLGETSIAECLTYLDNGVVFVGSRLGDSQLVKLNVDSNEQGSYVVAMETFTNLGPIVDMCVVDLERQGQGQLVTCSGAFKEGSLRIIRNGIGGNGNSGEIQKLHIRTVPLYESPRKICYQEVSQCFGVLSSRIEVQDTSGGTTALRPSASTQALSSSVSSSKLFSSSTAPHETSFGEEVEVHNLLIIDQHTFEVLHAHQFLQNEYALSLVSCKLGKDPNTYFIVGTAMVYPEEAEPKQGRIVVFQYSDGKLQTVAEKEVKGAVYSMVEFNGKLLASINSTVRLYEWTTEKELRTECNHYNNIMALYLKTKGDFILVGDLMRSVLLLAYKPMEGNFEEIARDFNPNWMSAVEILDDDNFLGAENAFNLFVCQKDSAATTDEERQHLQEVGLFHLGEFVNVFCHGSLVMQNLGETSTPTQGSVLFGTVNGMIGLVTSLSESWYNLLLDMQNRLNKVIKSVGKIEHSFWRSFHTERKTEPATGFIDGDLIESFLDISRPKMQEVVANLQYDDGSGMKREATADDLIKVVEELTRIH", "experiment": "BLI; pomalidomide"}, "[2]": {"target": "two-zinc finger construct containing SD0, MBP–Avi–His fusion, biotinylated (UniProt Q13422)", "sequence (Q13422 other isoform, or with tags, fused parts or gaps)": "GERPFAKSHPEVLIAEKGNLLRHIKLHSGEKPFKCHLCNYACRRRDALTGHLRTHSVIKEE", "experiment": "FRET; saturating pomalidomide", "details": "complex"}, "[3]": {"target": "two-zinc finger construct containing SD0, MBP–Avi–His fusion, biotinylated (UniProt Q13422)", "experiment": "FRET; pomalidomide titration (compound EC50 of ternary complex formation)"}},
  "data": [
    {"substance": "two-zinc finger construct containing SD0, MBP–Avi–His fusion, biotinylated (from UniProt Q13422 141-145; Q96JP5 450-460; Q13422 157-243)", "values": [
      {"measurement": "Kd", "setting": "[1]", "value": 0.245, "unit": "µM"},
      {"measurement": "koff", "setting": "[1]", "value": 0.071, "unit": "s⁻¹"}
    ]},
    {"substance": "CRBN–eGFP•DDB1^ΔBPB (from UniProt Q96SW2 1-442; Q16531 1-395; Q16531 706-1140)", "values": [
      {"measurement": "Kd", "setting": "[2]", "value": 0.212, "unit": "µM"},
      {"measurement": "EC50", "setting": "[3]", "value": 0.314, "unit": "µM"}
    ]}
  ]
}
